The test deals with T1, C3b (UniProt P01024 23-667; P01024 749-1663).
T1 construct: Amine-coupled to a CM5 Biacore chip in the SPR assays; in solution in the cofactor assay; also called complement C3b
Description: SPR (Biacore), C3b amine-coupled to a CM5 chip, steady-state fit over two flow cells (1540 and 3030 RU of C3b). Here is the method: FIG. 3G—(i) and (ii)—Use of SPR to measure affinity of (i)rFH and (ii) plasma-purified FH for C3b coupled to aCM5 sensor chip (Biacore). Duplicate sensorgrams are shown for a concentration series (5.4 μM, 1.0 μM, 0.5 μM, 0.1 μM) flowed over 1540 response units of immobilised C3b. (iii) and (iv)—Plots of response units versus (iii)rFH or (iv) plasma-purified FH concentrations for two different flow cells with either 1540 RUs (lower curve in each plot) or 3030 RUs (upper curve in each plot) of C3b.
On the technique in general: In SPR one partner is held on a chip, and binding of the other changes the refractive index at the surface.

Where a chain is given by its changes, count along the chain named.

T1 sequence (P01024 23-667 limits assumed, chain 1 of 2): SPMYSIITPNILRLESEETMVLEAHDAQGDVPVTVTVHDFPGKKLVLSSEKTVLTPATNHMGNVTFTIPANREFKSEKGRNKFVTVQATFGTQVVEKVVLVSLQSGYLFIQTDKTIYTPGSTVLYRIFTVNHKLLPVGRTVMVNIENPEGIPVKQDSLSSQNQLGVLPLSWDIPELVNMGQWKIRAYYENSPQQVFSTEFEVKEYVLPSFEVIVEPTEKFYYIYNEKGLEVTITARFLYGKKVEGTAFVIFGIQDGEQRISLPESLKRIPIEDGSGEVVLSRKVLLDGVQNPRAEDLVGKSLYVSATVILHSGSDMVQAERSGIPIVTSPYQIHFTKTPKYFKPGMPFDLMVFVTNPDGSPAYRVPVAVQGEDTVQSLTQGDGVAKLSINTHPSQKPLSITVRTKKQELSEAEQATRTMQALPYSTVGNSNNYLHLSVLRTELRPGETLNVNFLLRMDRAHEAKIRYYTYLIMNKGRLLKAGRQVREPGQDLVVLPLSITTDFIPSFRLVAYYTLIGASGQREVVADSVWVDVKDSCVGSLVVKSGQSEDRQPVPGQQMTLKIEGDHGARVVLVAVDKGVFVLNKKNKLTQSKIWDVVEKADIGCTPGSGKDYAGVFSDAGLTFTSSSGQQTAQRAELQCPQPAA
T1 sequence (P01024 749-1663 limits assumed, chain 2 of 2): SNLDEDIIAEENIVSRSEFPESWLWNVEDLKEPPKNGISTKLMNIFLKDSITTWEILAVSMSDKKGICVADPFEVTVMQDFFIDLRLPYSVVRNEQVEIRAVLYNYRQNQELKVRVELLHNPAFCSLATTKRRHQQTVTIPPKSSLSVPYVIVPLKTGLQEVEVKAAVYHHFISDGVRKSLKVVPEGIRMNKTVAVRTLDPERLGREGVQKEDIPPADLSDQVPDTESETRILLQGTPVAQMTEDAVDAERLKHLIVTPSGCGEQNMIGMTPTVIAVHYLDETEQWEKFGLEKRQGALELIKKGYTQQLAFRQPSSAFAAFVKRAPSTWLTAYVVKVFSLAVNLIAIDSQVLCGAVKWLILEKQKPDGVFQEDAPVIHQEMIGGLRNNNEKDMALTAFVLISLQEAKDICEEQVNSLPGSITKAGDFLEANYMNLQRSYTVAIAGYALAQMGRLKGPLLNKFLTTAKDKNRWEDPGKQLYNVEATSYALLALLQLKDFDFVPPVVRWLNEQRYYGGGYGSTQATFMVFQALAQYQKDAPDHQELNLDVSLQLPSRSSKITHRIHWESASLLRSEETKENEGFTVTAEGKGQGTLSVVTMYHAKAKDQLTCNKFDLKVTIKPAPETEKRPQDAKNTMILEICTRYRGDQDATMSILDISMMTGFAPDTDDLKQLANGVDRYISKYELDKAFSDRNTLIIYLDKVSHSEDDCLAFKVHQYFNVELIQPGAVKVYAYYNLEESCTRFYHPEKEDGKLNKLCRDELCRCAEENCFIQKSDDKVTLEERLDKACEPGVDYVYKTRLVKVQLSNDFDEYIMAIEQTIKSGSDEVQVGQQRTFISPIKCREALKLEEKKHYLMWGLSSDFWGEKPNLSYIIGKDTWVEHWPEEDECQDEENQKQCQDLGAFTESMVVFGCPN

B1: recombinant human complement factor H (rFH) expressed from codon-optimised DNA in Pichia pastoris (other, UniProt P08603 19-1231, looked up)
chain: EDCNELPPRRNTEILTGSWSDQTYPEGTQAIYKCRPGYRSLGNIIMVCRKGEWVALNPLRKCQKRPCGHPGDTPFGTFTLTGGNVFEYGVKAVYTCNEGYQLLGEINYRECDTDGWTNDIPICEVVKCLPVTAPENGKIVSSAMEPDREYHFGQAVRFVCNSGYKIEGDEEMHCSDDGFWSKEKPKCVEISCKSPDVINGSPISQKIIYKENERFQYKCNMGYEYSERGDAVCTESGWRPLPSCEEKSCDNPYIPNGDYSPLRIKHRTGDEITYQCRNGFYPATRGNTAKCTSTGWIPAPRCTLKPCDYPDIKHGGLYHENMRRPYFPVAVGKYYSYYCDEHFETPSGSYWDHIHCTQDGWSPAVPCLRKCYFPYLENGYNQNYGRKFVQGKSIDVACHPGYALPKAQTTVTCMENGWSPTPRCIRVKTCSKSSIDIENGFISESQYTYALKEKAKYQCKLGYVTADGETSGSITCGKDGWSAQPTCIKSCDIPVFMNARTKNDFTWFKLNDTLDYECHDGYESNTGSTTGSIVCGYNGWSDLPICYERECELPKIDVHLVPDRKKDQYKVGEVLKFSCKPGFTIVGPNSVQCYHFGLSPDLPICKEQVQSCGPPPELLNGNVKEKTKEEYGHSEVVEYYCNPRFLMKGPNKIQCVDGEWTTLPVCIVEESTCGDIPELEHGWAQLSSPPYYYGDSVEFNCSESFTMIGHRSITCIHGVWTQLPQCVAIDKLKKCKSSNLIILEEHLKNKKEFDHNSNIRYRCRGKEGWIHTVCINGRWDPEVNCSMAQIQLCPPPPQIPNSHNMTTTLNYRDGEKVSVLCQENYLIQEGEEITCKDGRWQSIPLCVEKIPCSQPPQIEHGTINSSRSSQESYAHGTKLSYTCEGGFRISEENETTCYMGKWSSPPQCEGLPCKSPPEISHGVVAHMSDSYQYGEEVTYKCFEGFGIDGPAIAKCLGEKWSHPPSCIKTDCLSLPSFENAIPMGEKKDVYKAGEQVTYTCATYYKMDGASNVTCINSRWTGRPTCRDTSCVNPPTVQNAYIVSRQMSKYPSGERVRYQCRSPYEMFGDEEVMCLNGNWTEPPQCKDSTGKCGPPPPIDNGDITSFPLSVYAPASSVEYQCQNLYQLEGNKRITCRNGQWSEPPKCLHPCVISREIMENYNIALRWTAKQKLYSRTGESVEFVCKRGYRLSSRSHTLRTTCWDGKLEYPTCAKR
modifications: N-glycans removed with Endo Hf after expression
notes: mature; also called rhFH; recombinant FH
For B1, the affinity, expressed as Kd, was 1.4 µM.

B2: plasma-purified human factor H (other, UniProt P08603 19-1231, looked up)
chain: B1 chain with I44V
notes: mature; Bought, plasma-derived; also called FH; plasma FH
On to B2, for which the dissociation constant Kd was found to be 2.9 µM.

As usually defined, the Kd is the equilibrium constant for the complex coming apart. Read a low Kd as tighter binding.

The record behind these values is patent US20150139975A1 (published 2015).
